Assay results from the domain aggregation screens of Martell et al. (2025).

Experiment: soluble fraction after stress (log2 fold change); higher = more stays soluble; pooled small domains, quantitative proteomics
Settings: stress: 75 degC
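Further: 20 min heating vs room temperature control held 20 min.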

Sequence	soluble fraction (log2)
HMSEKLLTLNEISEKLRVSRHTVQAWVSPSSPNHRPEFSSLARHAGRKTVFLESDVDAWLAQRR	-1.07
HMSEKYPPIDWNNIKTGQSVLIKDINQVVSLTKLPDSKGFAEVQMGLIKTKIKAEKLAATDKKPNK	-0.326
HMSELDSYIGARLRMRRLMLGMSQEALGEKLSLTFQQIQKYEKGTNRVSASRLYELAQVLDVPVQFFFDGA	-2.98
HMSENDTILAKFASIINNKSLELVIFPDTAYLKGQVSTPEDKARAETVAQSLLGSKPLISLIEFE	-0.386
HMSENPLTSREIEIVQLLANGKTTKSIAEELHLSNGTIRNYVSIVLDKLNVSNRIEAIRKALDKGWL	-1.81
HMSEPQEISYSDFIEQVNRNEIRQVEFDGQHEYLTVIRKDTSRFKVIIPAPDPRLLDDLMEHDVEIVGKE	-0.123
HMSEQYEQIQLALKTLTQDEQDIVRLVVVEGASLRTAGKNLGVSAMTIQRRLKRALARLRDLLAS	-0.839
HMSESKYKMIKNWIKSKILDGTLVPNQKIYSESELMEIFDVSRHTVRLAIGELVSEGYLFKRQGTGTFVTQ	-2.82
HMSETTSRVLQLLGLLQARRVWTGQELADRLGVTGRSVRRDIERLRDLGYPVHASKGRDGGYQLGA	-1.61
HMSEYILATNDGEFLRITSYSKEEGGMLVWEKTSSIVSAEHKVIPYSQIINIKDRNGDVVWDKD	-0.988
HMSEYNPGIYRVTDPALNIRTGPGVEYPVVGVIKDQGSYTITEIRNKSWGRLLSGAGSTAIKHIVFT	0.214
HMSFEITGDELILRFVKDKGGATTEQIRKHWEASNRGGKSDNNLTNLVKSGKLLRSKDPNGPGSLYTAS	-0.0632
HMSFESMGLTPRQADVLTLLLQGKSNKDIARRLVLSVETVKDHVQAVLRALGVSSRTQAVLAVGQMTQQ	-0.584
HMSFGYFQLRAKDPQKLKSVLEKIPQIQSIKEEKGDLIGYLNADMEAEELSQKLAAAKIFVTHMAKKK	-0.583
HMSFISRMVVAVEDIALSTRPNSTPSGDKYVSKGTVLLMEKRENDWVEVRQPSSPLSGWAPKTSLLSV	-0.246
HMSFNLSETKKLILEEIQKGVSSVTQIAATAGISKGMTYNHLRELKLMGYIADGDSGYVITDAGKIAS	-0.448
HMSFRYLHVKRQLMSLIGTMNAHERLPSRTDLSETFQVARTTIERAISELIGEGWLYARDGSGTYVAER	-3.45
HMSFSTHHEYYIYNLAVDMRKGYDGLSGLVVNELGRQPWDGSVYVFFNTMRDKVKLLVWDTDGYVIYSKR	-0.279
HMSFTDLILKSANAIDEMGGIWENGKQILGEKAIAIHEEIVDNGLNPDKDGFYKLANGQMIQYG	0.0518
HMSFVEVTVSELKNYVNSHARIKLKSGKEFKGFILDANEEGVIIKVQLRGGTAESTISYNRIDRAAVF	-4.01

Sequence	soluble fraction (log2)
HMSGAERAAALLVALGPEVASEIMKFLDDESIQKLASEIAKIEVLSPQEKEDLIGQFLLELKKT	-0.419
HMSGAWEVGLLRQFTDWMGTQYNAYAGRNFDAITVAQVAEKNPELLTPFVESFFKERVEPALAAG	-1.08
HMSGEDYLERILMLKEKHGNVRAIDIANSMNFSKPSVSIALHKLSENGYVVIQNNGAIELTEKGLEVAT	-0.455
HMSGEIPFPPAFKPSADHIAIASEKGINIETELLNFRDYHQARGTKLIDWNSAFRVWLRNAR	-0.531
HMSGEITVPNLIGVEAIQAKTLLIQAGFLIKEFYDLDSTQPAGVVIRQAPEAGTTQTIGKSVTITINKQ	-1.25
HMSGENAVLTEGTMVTVRRGGETITATARKETVKQFLSRMDIIPGSREMVGIELMENSVMLTISD	-0.889
HMSGFPTDAQIVREIRNILPTLENPTPRMVRKALENTFEVDMGESKTKKYINNIIITEYEKWSSVQSIRE	-0.603
HMSGGNTSAFKGKLNYEYRGNDTIITGSTYPVKELIKKAGGRWDPGSSAWIIKGRHVSDNEIF	0.054
HMSGQKDVPDLYGMTVKQAKKEVEAAGFKLKEGKEVYSNDYSKGQIAEQDPESGSKAKKGSSITVHVSKG	0.0162
HMSGRIWTDNYGRTIEADVIKVNINRTVLLEFTDKKTKTVSFDTFISKDIQYLEYLLTRRNRGKL	-3.98
HMSGRVPTADDIAVGMKVYVPRLGGTGTVVTEPVRDKVVIQVGSLRLHAEVAELLLPDEHGRIQVPR	-0.844
HMSGTGSYVALLRDPQGNVGKVVVKGSKGEQVLSQPQQAARLDGATPSYEVTGRQIAEDFGRALAV	0.144
HMSGTYIATVEAGSLDIYKSMTSNETIGKASRGDVFQILEDMGSGYARVSYNDVEGYMSIKTGDASIEEL	0.113
HMSGVSESIEKKIQYLLLEKPLPLHDLIEAIEIGKEEDRLKVLRSLMDSDTVKIEDDLYHWNA	-0.133
HMSGYSTLFTRMSREDAQAVVSLLQDDGIEYRYNDDTGTVQVPSATVDQTRAKLVSAGYPRS	-0.268
HMSHANAALTPRARLRLAKLIVEEHWPVATAAKMFMVSPPTARKWATRFRAEGPAGMADRSSRP	-1.63
HMSHFRMLPSITEADAFLKSRSLPAGLEVREQVDAFLAQARQTLALAQEAPWLSKQEVLETLADEFVQTS	-0.652
HMSHFSERLKSLRQQSSITQAKLADDLNVTKSLISMYESGQRLPSFEMLETIADYFNVPLSSLV	-0.541
HMSHGFFTLQSDDLNLLRTVLEGHSSIGDIKIEGIQLVAYLKEPLNGAELNKILFEKGINLSYLVHRK	-2.9
